Assay results as given in doi:10.1101/2024.05.21.594841.
“And” between values parts separate entries of the source, which are not always exact repeats. Equal values may be shown once.

Molecular target: these 5 target proteins
Assay: split reporter

B1: Lhs1p (natural protein)
chain: AVLGVDYGQQNIKAIVVSPQAPLELVLTPEAKRKEISGLSIKRLPGYGKDDPNGIERIYGSAVGSLATRFPQNTLLHLKPLLGKSLEDETTVTLYSKQHPGLEMVSTNRSTIAFLVDNVEYPLEELVAMNVQEIANRANSLLKDRDARTEDFVNKMSFTIPDFFDQHQRKALLDASSITTGIEETYLVSEGMSVAVNFVLKQRQFPPGEQQHYIVYDMGSGSIKASMFSILQPEDTTQPVTIEFEGYGYNPHLGGAKFTMDIGSLIENKFLETHPAIRTDELHANPKALAKINQAAEKAKLILSANSEASINIESLINDIDFRTSITRQEFEEFIADSLLDIVKPINDAVTKQFGGYGTNLPEINGVILAGGSSRIPIVQDQLIKLVSEEKVLRNVNADESAVNGVVMRGIKLSNSFKTKPLNVVDRSVNTYSFKLSNESELYDVFTRGSAYPNKTSILTNTTDSIPNNFTIDLFENGKLFETITVNSGAIKNSYSSDKCSSGVAYNITFDLSSDRLFSIQEVNCICQSENDIGNSKQIKNKGSRLAFTSEDVEIKRLSPSERSRLHEHIKLLDKQDKERFQFQENLNVLESNLYDARNLLMDDEVMQNGPKSQVEELSEMVKVYLDWLEDASFDTDPEDIVSRIREIGILKKKIELYMDSAKEPLNSQQFKGMLEEGHKLLQAIETHKNTVEEFLSQFETEFADTIDNVREEFKKIKQPAYVSKALSTWEETLTSFKNSISEIEKFLAKNLFGEDLREHLFEIKLQFDMYRTKLEEKLRLIKSGDESRLNEIKKLHLRNFRLQKRKEEKLKRKLEQEKSRNNNETESTVINSADDKTTIVNDKTTESNPSSEEDILHDEL
**Q.** With B1 as the binder, how does the normalized interacting score read?
**A.** 83% and 93%
